1 molecule from patent publication US20050049299A1, “Selective inhibitors of stat-3 activation and uses thereof” (priority 2003, published 2005) can be followed below.

For one assay, the system named is MM.1S and MM.1R cells. Nature of the assay: TNF- and LT-induced proliferation of MM.1S and MM.1R cells (thymidine incorporation). Format: cell-based, human. As to conditions: serum starved 12 h, 48 hours serum-free. As to the method: (§1) The cell proliferation assay was performed as described below. Results are shown as mean (±s.d. indicated by error bar) of percent [^3H] thymidine incorporation of triplicate cultures compared to the untreated control. […] Cells were treated with IL-6 for 10 minutes as a positive control for STAT3 phosphorylation. Thirty micrograms of whole cell extract was were resolved on 7.5% SDS-PAGE, electrotransferred to a nitrocellulose membrane, and probed for phosphorylated-STAT3 (upper panel), stripped, and reprobed for STAT3 (lower panel).
The antiproliferative effects of curcumin were also monitored by the thymidine incorporation method. For this, 5000 cells in 100 μl medium were cultured in triplicate in 96-well plates in the presence or absence of curcumin for 24 h. Six hours before the completion of experiment, cells were pulse treated with 0.5 μCi [^3H]thymidine, and the uptake of [^3H]thymidine was monitored using a Matrix-9600 β-counter (Packard Instruments, Downers Grove, Ill.).
(§2) MM.1S and MM.1R cells were serum starved for 12 h and then treated with TNF or lymphotoxin in the serum free medium.
In general terms: Uptake of a labelled nucleoside into DNA is a usual measure of proliferation.

Another assay deals with STAT3 phosphorylation. Nature of the assay: STAT3 phosphorylation in MM.1S and MM.1R cells after TNF, LT or IL-6 (Western blot). Format: cell-based, human. As to conditions: 1 nM TNF or LT. The procedure: as §1
For detection of STAT proteins, whole-cell extracts were prepared by lysing the curcumin-treated cells in lysis buffer (20 mM Tris, pH 7.4, 250 mM NaCl, 2 mM EDTA, pH 8.0, 0.1% Triton-X100, 0.01 mg/ml aprotinin, 0.005 mg/ml leupeptin, 0.4 mM PMSF, and 4 mM NaVO4). Lysates were then spun at 14000 rpm for 10 min to remove insoluble material, and resolved on a 7.5% gel. After electrophoresis, the proteins were electrotransferred to a nitrocellulose membrane, blocked with 5% nonfat milk, and probed with anti-STAT antibodies (1:1000) overnight at 4° C. The blot was washed, exposed to HRP-conjugated secondary antibodies for 1 h, and finally examined by chemiluminescence (ECL, Amersham Pharmacia Biotech. Arlington Heights, Ill.).
as §2
In general terms: A western blot detects proteins with antibodies after separation by electrophoresis.

B1: lymphotoxin: bacteria-derived recombinant human LT provided by Genentech (protein, UniProt P01374 35-205, looked up)
Lymphotoxin-alpha: LPGVGLTPSAAQTARQHPKMHLAHSTLKPAAHLIGDPSKQNSLLWRANTDRAFLQDGFSLSNNSLLVPTSGIYFVYSQVVFSGKAYSPKATSSPLYLAHEVQLFSSQYPFHVPLLSSQKMVYPGLQEPWLHSMYHGAAFQLTQGDQLSTHTDGIPHLVLSPSTVFFGAFAL
As to B1, the “proliferative effects in MM.1S and MM.1R cells” value with MM.1S and MM.1R cells is given as “more pronounced in dex-resistant MM.1R cells than in dex-sensitive MM.1S cells”. The “induction of STAT3 phosphorylation” value in the assay with STAT3 phosphorylation is on record as “neither TNF nor lymphotoxin induced STAT3 phosphorylation”.
